experiment: label from the status in PepcDB records

For “MTKIPMFELEEAIDRQPLTVAPTLPVAQVLAVMERQHSSYVLLMESNQTLVGIFTERDLVRLTAIGITITSTPIEEVATSTVTTIQESDIYDVIRTLNLFRQYNVRHLPVVNATHQLIGIMTYEGIRRLLKPIDLLRLWRVSEVMVKSIICADRYQSALSLAELMSDRLISCVVITEKDPSGFPKPIGLVTERDILHLQVQGADLSQTIAADFMGSPPVFIQASDTLWQANQYMRARKIRRLLVVDERNIMVGLLTQTSLIHMIDPVEATLTIETLQQMVGERTVALDAANEKLERKALERKRAKAALQQQIYRERLVNRTAQRIRESLQLDEILVTTVSEVRQFLKAERVLIYRFQPNQQGAIAAESTDSNQTLIQGNAELEAILQEIDPTFYSCDRIHSIPDLQAQGLELTNATLLKRLQLRASLVAPIFAQEILWGLLIVGQNSQPRRWEKLEIDLLKQLATQVGIAIQQARLYAQLAAANQQLLRLAQSDGLTGLANRRHFDQCLDIEWQRAIREQHPLGLILIDIDCFKQFNDTYGHQAGDDCLKAVATALTQVIARPADLVARYGGEEFVVILPNTNEQGILQIAESMRSAVQQLKIPHRSSSVCSSVSLSLGAVTWVPTPHKSPEALIGAADQALYQAKELGRNRVCLGGVRLLETT”, which protein production is on record?
Its protein production is “failed”.

For “MTKITVLSGKGGTGKTTVSVNMAKALSESYRVQLLDADVEEPNDHIFFNVDVSFEEPVHLMIPVVDNSVCIRCGECASTCQFGAISVFPSGTFVFESLCHGCGACSIMCPVNAISERPKEIGKIRFGTADGNISFGMGILNIGERTGVPVIRKLKKHIDEKADVVIVDAPPGTSCPVVESLRNTDFALLVTEPTAFGLHDLKLAVELTKEMGIPSGIVVNRYIPGNTIIEEFADEEGIPVLLKIPFKREIASLCAEGKLIVEAFQDMKKDFLELFEKIEVMVRLEHHHHHH”, which protein production is on record?
Its protein production is “not failed”.

Which protein production does the source give for “MTKKILTTPIKDEDLADIKAGDIIYLNGHIVTCRDVAHRRLIEGGRELPVNVAGGAILHAGPIVRPIKGTEDKFEMVSVGPTTSMRMEKFEKEFIAKTGVKLIVGKGGMGKGTEEGCMEHKALHCVFPAGCAVVAAVCVEEIEDAQWRDLGMPETLWVCRVKEFGPLIVSIDTHGNNLFEQNKVIFNQRKEIVADEICKHVSFIK” here?
The protein production was “failed”.

For “MTKKIVLAGGTGFIGQYLQQRFEENGDEVVIISRRAPHVSWDDSEAVREALEGADMLVNLAGKSVNCRYNEQNKKAILQSRIDTTNILGEAVLACERPPKLWLNSSTATIYRHAEDRAMTEANGELGSGFSENVAKAWEEEFFSFQLPNTRQAALRISIVLGGDGGALTPYRYLTKFGLGGKQGSGKQMVSWIHVEDVFRVIRFIEEQEALEGVINCTSPQPVSNKVLTTAIRRAMNVKVGLPATAWMLEIGTFLLRTESELILKSRWVLPERLLQAGFTFQYETIDDALSEILVQSKSASHLLEHHHHHH”, which protein production is on record?
Its protein production is “failed”.

For “MTKKKAHKPGSATIALNKRARHEYFIEEEFEAGLALQGWEVKSLRAGKANISDSYVLLRDGEAFLFGANITPMAVASTHVVCDPTRTRKLLLNQRELDSLYGRVNREGYTVVALSLYWKNAWCKVKIGVAKGKKQHDKRSDIKEREWQVDKARIMKNAHR”, which protein production is on record?
The protein production was “not failed”.

Which protein production does the source give for “MTKKVMIKGDIVDDQTAGFYQFFGMPAVSPSGVADILNDDSGDDDDDGDDEALEVDIASNGGDVFAASEIYTMLKNYAGNVTVNIQGLAASAASVIAMAGDHINISPTAQIMIHKAWSQPAGNADDLEHEASVLNGIDQSIASAYEAKTGMDQADLLQLMANETWLTASDAVDKGFADEIMFANDQQLQPVNAISHIPPKSAVNKLMNLIYKADKDKAKPSKKENTTNGQSAELRNSKLAILFEKNQKEAN” here?
Its protein production is “failed”.

With “MTKPLILASQSPRRKELLDLLQLPYSIIVSEVEEKLNRNFSPEENVQWLAKQKAKAVADLHPHAIVIGADTMVCLDGECLGKPQDQEEAASMLRRLSGRSHSVITAVSIQAENHSETFYDKTEVAFWSLSEEEIWTYIETKEPMDKAGAYGIQGRGALFVKKIDGDYYSVMGLPISKTMRALRHFDIRA” as the sequence, how does the protein production read?
Its protein production is “not failed”.

For “MTKPMIQIALDQTNLTDAVAVASNVASYVDVIEVGTILAFAEGMKAVSTLRHNHPNHILVCDMKTTDGGAILSRMAFEAGADWITVSAAAHIATIAACKKVADELNGEIQIEIYGNWTMQDAKAWVDLGITQAIYHRSRDAELAGIGWTTDDLDKMRQLSALGIELSITGGIVPEDIYLFEGIKTKTFIAGRALAGAEGQQTAAALREQIDRFWP”, which protein production is on record?
Its protein production is “not failed”.

With “MTKPSRPDAPGDGRPRRLPGVARCRRDAAGHPPAHRLRWLQLLIWLVPMLAALVSIGLVAGQVRGHGPAITLGFQDGEGIEPGKTPVRYNDVDIGMVTAVRLSTDLSRVLVTVQLNQEAADFATHGTRFWIVRPRAGMSGASGLGTLLSGTYIGADSGGSHEPETQFTGLENPPVVSLRQQGARFVLRGPSLGSVETGSPVYYRHVEVGQVTGTALDKDGAGVTIDVFIEAPYHRYVGRDTQWRHASGLGLRLDAAGLRVNAESFQTMLLGGIAFQPSPGQPAGDAVPDGTVFGLQSGDLDAADGPDGKPSTVVMHFDQSLHGLSVGAAVDFRGVQLGEVTNVGVAFDPKTHTFVMPVTLNLYPDRLGQAFRASSEYGDAAAGKALLRTLVARGLRGQLRTGNLLTNQLYVALDMFPNAPPVQLDLNGTLIALPTIPNTLDDLQAQVADLAKTLDRVPLDQLGTHLGQRLDNARRLFALTDAQLAPQARATLAAARQAFDAAQAIAQSPLLRPADLSRVREQLGQTLRALDTLTDTVAQHPESLVWGPAVDTRTAQSP” as the sequence, how does the protein production read?
The protein production was “failed”.

With “MTKQFHCVTVGNPNAGKSTLFNALTGANQQVGNWSGVTVEKKTGHFTLNGADVYLTDLPGIYDLLPAGNSCDCSLDEQIAQQYLAEQRVDGIINLVDATNIERHLYLTAQLRELSIPMVVVLNKIDAAIKRGICVDLTKMSQELGCPVIGVCSRDPADVAKVQAQVLDLLQGRVSEAPLLLDYDKQIEAGVQLLCRKDPNLSRGRALAMLGNGSGCGSCKNAQLQDEVNTCTQQIAQQGHDIEVMVATTRFNFVERVFQSSVKADGFLTLSDKLDKLVLHPVLGIPVFLFVMYLMFMFSINIGSAFIDFFDVFAGALLVDHFGALLTNIGAPAWVVTILAGGVGQGIQTVSTFIPVIAALFLGLSILESSGYMARAAFVVDGLMRRIGLPGKAFVPMIVGFGCSVPAIMATRTLGSERERIVTGMMAPFMSCGARLPVYALFAAAFFPDSGQNLVFLLYVIGIFAAIGTGLLLRSTLLPGTSSAVVMELPSYELPKFKAVMVRTGKRTKSFILGAGKTIVLVVTLLNFINAIGVDGSFGHEDSQASLLSVASQKVTPIFAPMGIEQDNWPATVGIITGIFAKEAVVGTLNSLYTNATPEGSELTPLADSFNEALATIPANLFGLDLEDPLKLSVGDVSNTEVAAETQGVATSTFSALQSGFTTKVAAFSYLLFILLYTPCVAAMGALVNEFGTRWATFAATWTFALAYGSATVVYQAATFAAHPLQSSLWIGFFLVALVMFYLWLKRKGRRTQQIIPGVRIITE” as the sequence, how does the protein production read?
The protein production was “failed”.

Which protein production does the source give for “MTKTALVLGTVATLAVASVAAPAPAEARNGIGPFIGGLAAGALIAGVASNAYAYGPGYGYYGGGPYYGGGPYYGYAPRYVGYYGGPAYYGGGYGWGGPRYYRPRPVYYGYRSYYRPYRGGYYGAPVIRAGYGPGWGGHRHWHHHRHW” here?
The protein production was “failed”.

With “MTKTFKTLDDFLGTHFIYTYDNGWEYEWYAKNDHTVDYRIHGGMVAGRWVTDQKADIVMLTEGIYKISWTEPTGTDVALDFMPNEKKLHGTIFFPKWVEEHPEITVTYQNEHIDLMEQSREKYATYPKLVVPEFANITYMGDAGQNNEDVISEAPYKEMPNDIRNGKYFDQNYHRLNK” as the sequence, how does the protein production read?
Its protein production is “not failed”.

With “MTKTLVIIAHPDMARSRVNAAWAEALRRAGDITLRDLSALYPDGMIDGAVERSLLEAHDRIILQFPLTWYSCPPILSAWQIAILTRGWAYGPGGRALRLKTLGVALSTGSNGRDYQPDGRYGRTLEDVTVPFELMARHTGMHYLPPFTLTGVRECDDAAVAASARAYLDHVRTAKPRILASGRDDDRARTVYPLEAGAR” as the sequence, how does the protein production read?
The protein production was “failed”.

With “MTKVNPYAAGARGLCPHCGEGYLFDGFLKVAPRCEACGFELGKHETGDGAATFVILIAGAICAFGALFSMFAWNWPVWVSLVVWLPAVVAISLGLMRPAKGLMVAAQIAQKASEAGRDHV” as the sequence, how does the protein production read?
Its protein production is “failed”.

With “MTLAALCQGVLERLDPRQPGRQLVALSGAPGSGKSTLSNPLAAALSAQGLPAEVVPMDGFHLDNRLLEPRGLLPRKGAPETFDFEGFQRLCHALKHQERVIYPLFDRARDIAIAGAAEVGPECRVAIIEGNYLLFDAPGWRDLTAIWDVSIRLEVPMADLEARLVQRWLDHGLNHDAAVARAQGNDLANARAIEAARLPADLTWPQA” as the sequence, how does the protein production read?
Its protein production is “not failed”.

Reference: a protein production outcome set (Wang et al. 2014)
